In paper PMC7884711, “Identification of efficient prokaryotic cell-penetrating peptides with applications in bacterial biotechnology” (Communications Biology, 2021):
Where no end group is shown, it is not given here.

Columns and labels:
[1] = test system: E. coli DH5α cells; assay: Penetration efficiency of TAMRA-labeled CPPs, electroporation-based method, flow cytometry; format: cell-based, Escherichia coli; conditions: electrocompetent E. coli DH5α, 5 μg TAMRA-CPP, electroporation 1.8 kV; for Cell penetration efficiency (TAMRA fluorescence), Electrooration - Tris buffer: 20 mM Tris-HCl pH 7.5, 1 h; for Cell penetration efficiency (TAMRA fluorescence), Electrooration - DW: distilled water, 1 h
Excerpt: (§1) (Fig. 2a). […] First, we prepared electrocompetent and chemically competent cells.

[2] = test system: E. coli DH5α cells; assay: Penetration efficiency of TAMRA-labeled CPPs, non-treated cells (control method), flow cytometry; conditions: 5 μg TAMRA-labeled CPP (0.1 μg/μL), 1 h, PBS washes
Description: For the evaluation and optimization of the electroporation-based method, five efficient CPPs were selected from the previous reports[45],[46] […] The CPP were labeled with TAMRA to trace their penetration into the cytoplasm. First, we prepared electrocompetent and chemically competent cells[46]. As a negative control, we also prepared non-treated cells. After treating the five TAMRA-labeled CPP peptides, either distilled water or 20 mM Tris-Cl (pH = 7.5) was added as a buffer to the E. coli–CPP mixture and incubated at 37 °C for 1 h. After washing the cells, their fluorescence intensities were measured by flow cytometry to quantify CPP delivery efficiency.
Prepared cells at a density of 5 × 10^7 cells/50 μL were treated with 5 μg of TAMRA-labeled CPPs (0.1 μg/μL) and incubated for 1 h at room temperature. After incubation, the cells were washed with 1 × PBS and centrifuged at 7000 rpm for 10 min three times to remove extracellular CPPs.
Then, the cells were washed with 1 × PBS and centrifuged at 7000 rpm for 10 min three times. The fluorescence intensity of the CPPs in E. coli cells was quantitatively measured using a Guava EasyCyte flow cytometer (Millipore, Darmstadt, Germany) with an excitation wavelength of 547 nm and an emission wavelength of 580 nm.

[3] = test system: E. coli DH5α cells; assay: Penetration efficiency of TAMRA-labeled CPPs, chemical (CaCl2) treatment method, flow cytometry; format: cell-based, Escherichia coli; conditions: for Cell penetration efficiency (TAMRA fluorescence), Chemical (CaCl2) method - Tris buffer / Cell penetration efficiency (TAMRA fluorescence), Chemical (CaCl2) method - DW: 50 mM CaCl2-treated E. coli DH5α, 5 μg TAMRA-CPP; for Cell penetration efficiency (TAMRA fluorescence), Chemical (CaCl2) method - Tris buffer: 20 mM Tris-Cl pH 7.5, 1 h; for Cell penetration efficiency (TAMRA fluorescence), Chemical (CaCl2) method - DW: 5 × 10^7 cells/50 μL, distilled water, 1 h; for Penetration efficiency (TAMRA FI): TAMRA fluorescence intensity in E. coli, library screen of 98 CPPs
Excerpt: as §1

[4] = test system: E. coli DH5α cells; assay: Inhibition of bacterial cell growth by CPPs (Max OD600 relative to control); format: cell-based, Escherichia coli; conditions: for Max OD (%) (Figure 3f): E. coli DH5α diluted 1/1000 in LB, 5 μg TAMRA-CPP (0.1 μg/μL), OD600 monitored 18 h, max OD of treated cells / max OD of control cells; for Growth rate (%): E. coli growth with CPP, relative to control; for Anti-bacterial activity: class (Cytotoxic / Safe), cutoff of 50%
Description: E. coli DH5α cells were grown until OD600 = 1 at 37 °C with shaking at 200 rpm. […] Then, cell growth (OD600) was monitored for 18 h by using the Synergy^TM H1 hybrid multi-mode microplate reader (BioTek, Vermont, USA). As a control, we used E. coli cells that were not treated with CPPs.

[5] = test system: E. coli carrying target plasmid with I-SceI recognition site; assay: Plasmid removal assay using CPP-conjugated I-SceI; format: cell-based, Escherichia coli
Excerpt: To investigate the applicability of CPPs in plasmid removal using a CPP-conjugated I-SceI restriction enzyme, we constructed three different target plasmids containing a different replication origin: a pSC101 origin (low-copy number), ColE1 origin (mid-copy number), and RSF1030 origin (high-copy number). Then, an I-SceI recognition site was inserted into the target plasmids. In addition, for the selection of plasmid-containing cells and counterselection of plasmid-free cells, the tetA gene (tetracycline resistance gene) was introduced into the target plasmids. The selection and counterselection were conducted by using tetracycline and NiCl2, respectively.
For the plasmid removal experiment, three E. coli strains carrying a target plasmid with a different replication origin were prepared. The plasmids contained an I-SceI restriction site and a replication origin (pSC101, ColE1, or RSF1030). […] Then, the buffer was replaced with 1 × CutSmart buffer, because I-SceI requires the Mg^2+ included in the CutSmart buffer[64] as a cofactor. The cells were further incubated at 37 °C for 2 h and then spread on LB agar plates containing 2 mM NiCl2. The colonies grown on NiCl2-containing plates were transferred to an LB agar plate and a tetracycline-containing LB agar plate in order to confirm whether the plasmids were completely removed from the cells.

Molecule: Rev(34-50) (TRQARRNRRRRWRERQR; also: TAMRA label, site not given here) [CPP 15, TAMRA-labeled CPP of the 98-CPP library, one of five used to evaluate delivery methods]
- Cell penetration efficiency (TAMRA fluorescence), Electrooration - Tris buffer ([1]; replicate 1): 1419.77 A.U.
- Cell penetration efficiency (TAMRA fluorescence), Electrooration - Tris buffer ([1]; replicate 2): 1626.5 A.U.
- Cell penetration efficiency (TAMRA fluorescence), Electrooration - Tris buffer ([1]; replicate 3): 1629.96 A.U.
- Cell penetration efficiency (TAMRA fluorescence), Electrooration - Tris buffer ([1]; replicate 4): 1157.23 A.U.
- Cell penetration efficiency (TAMRA fluorescence), Electrooration - DW ([1]; replicate 1): 772.285 A.U.
- Cell penetration efficiency (TAMRA fluorescence), Electrooration - DW ([1]; replicate 2): 531.205 A.U.
- Cell penetration efficiency (TAMRA fluorescence), Electrooration - DW ([1]; replicate 3): 564.956 A.U.
- Cell penetration efficiency (TAMRA fluorescence), Control ([2]; replicate 1): 29.8568 A.U.
- Cell penetration efficiency (TAMRA fluorescence), Control ([2]; replicate 2): 31.0533 A.U.
- Cell penetration efficiency (TAMRA fluorescence), Control ([2]; replicate 3): 36.163 A.U.
- Cell penetration efficiency (TAMRA fluorescence), Chemical (CaCl2) method - Tris buffer ([3]; replicate 1): 103.028 A.U.
- Cell penetration efficiency (TAMRA fluorescence), Chemical (CaCl2) method - Tris buffer ([3]; replicate 2): 97.4338 A.U.
- Cell penetration efficiency (TAMRA fluorescence), Chemical (CaCl2) method - Tris buffer ([3]; replicate 3): 68.163 A.U.
- Cell penetration efficiency (TAMRA fluorescence), Chemical (CaCl2) method - DW ([3]; replicate 1): 228.73 A.U.
- Cell penetration efficiency (TAMRA fluorescence), Chemical (CaCl2) method - DW ([3]; replicate 2): 679.736 A.U.
- Cell penetration efficiency (TAMRA fluorescence), Chemical (CaCl2) method - DW ([3]; replicate 3): 805.596 A.U.
- Penetration efficiency (TAMRA FI) [3]: 1458.36
- Max OD (%) (Figure 3f) ([4]; replicate 1): 73.0516%
- Max OD (%) (Figure 3f) ([4]; replicate 2): 73.4005%
- Max OD (%) (Figure 3f) ([4]; replicate 3): 79.5657%
- Growth rate (%) [4]: 75.3393%
- Anti-bacterial activity [4]: Safe

Molecule: R9-TAT (GRRRRRRRRRPPQ; also: TAMRA label, site not given here) [CPP 14, TAMRA-labeled CPP of the 98-CPP library, one of five used to evaluate delivery methods]
- Cell penetration efficiency (TAMRA fluorescence), Electrooration - Tris buffer ([1]; replicate 1): 1652.65 A.U.
- Cell penetration efficiency (TAMRA fluorescence), Electrooration - Tris buffer ([1]; replicate 2): 2400.94 A.U.
- Cell penetration efficiency (TAMRA fluorescence), Electrooration - Tris buffer ([1]; replicate 3): 906.944 A.U.
- Cell penetration efficiency (TAMRA fluorescence), Electrooration - Tris buffer ([1]; replicate 4): 1858.43 A.U.
- Cell penetration efficiency (TAMRA fluorescence), Electrooration - DW ([1]; replicate 1): 871.282 A.U.
- Cell penetration efficiency (TAMRA fluorescence), Electrooration - DW ([1]; replicate 2): 655.834 A.U.
- Cell penetration efficiency (TAMRA fluorescence), Electrooration - DW ([1]; replicate 3): 728.231 A.U.
- Cell penetration efficiency (TAMRA fluorescence), Control ([2]; replicate 1): 29.4004 A.U.
- Cell penetration efficiency (TAMRA fluorescence), Control ([2]; replicate 2): 32.4749 A.U.
- Cell penetration efficiency (TAMRA fluorescence), Control ([2]; replicate 3): 29.0426 A.U.
- Cell penetration efficiency (TAMRA fluorescence), Chemical (CaCl2) method - Tris buffer ([3]; replicate 1): 247.778 A.U.
- Cell penetration efficiency (TAMRA fluorescence), Chemical (CaCl2) method - Tris buffer ([3]; replicate 2): 278.483 A.U.
- Cell penetration efficiency (TAMRA fluorescence), Chemical (CaCl2) method - Tris buffer ([3]; replicate 3): 297.356 A.U.
- Cell penetration efficiency (TAMRA fluorescence), Chemical (CaCl2) method - DW ([3]; replicate 1): 1405.86 A.U.
- Cell penetration efficiency (TAMRA fluorescence), Chemical (CaCl2) method - DW ([3]; replicate 2): 216.364 A.U.
- Cell penetration efficiency (TAMRA fluorescence), Chemical (CaCl2) method - DW ([3]; replicate 3): 286.408 A.U.
- Penetration efficiency (TAMRA FI) [3]: 1704.74
- Max OD (%) (Figure 3f) ([4]; replicate 1): 76.3087%
- Max OD (%) (Figure 3f) ([4]; replicate 2): 63.2803%
- Max OD (%) (Figure 3f) ([4]; replicate 3): 64.6762%
- Growth rate (%) [4]: 68.0884%
- Anti-bacterial activity [4]: Safe

B1: I-SceI (No CPP): meganuclease I-SceI without CPP, control (protein, UniProt P03882 1-235, looked up)
Intron-encoded endonuclease …: MKNIKKNQVMNLGPNSKLLKEYKSQLIELNIEQFEAGIGLILGDAYIRSRDEGKTYCMQFEWKNKAYMDHVCLLYDQWVLSPPHKKERVNHLGNLVITWGAQTFKHQAFNKLANLFIVNNKKTIPNNLVENYLTPMSLAYWFMDDGGKWDYNKNSTNKSIVLNTQSFTFEEVEYLVKGLRNKFQLNCYVKINKNKPIIYIDSMSYLIFYNLIKPYLIPQMMYKLPNTISSETFLK
- Plasmid removal efficiency (%) ([5]; plasmid with ColE1 origin (15–20 copies), same protocol, replicate 1): 19.3%
- Plasmid removal efficiency (%) ([5]; plasmid with ColE1 origin (15–20 copies), same protocol, replicate 2): 13.3%
- Plasmid removal efficiency (%) ([5]; plasmid with ColE1 origin (15–20 copies), same protocol, replicate 3): 14.8%
- Plasmid removal efficiency (%) ([5]; plasmid with RSF1030 origin (>100 copies), same protocol, replicate 1): 17.57%
- Plasmid removal efficiency (%) ([5]; plasmid with RSF1030 origin (>100 copies), same protocol, replicate 2): 16.88%
- Plasmid removal efficiency (%) ([5]; plasmid with RSF1030 origin (>100 copies), same protocol, replicate 3): 17.79%
- Plasmid removal efficiency (%) ([5]; plasmid with pSC101 origin (~5 copies), 50 μL protein (0.05 μg/μL), electroporation, Tris-HCl pH 7.5 3 h, CutSmart 2 h 37 °C, 2 mM NiCl2 selection, replicate 1): 16.6%
- Plasmid removal efficiency (%) ([5]; plasmid with pSC101 origin (~5 copies), 50 μL protein (0.05 μg/μL), electroporation, Tris-HCl pH 7.5 3 h, CutSmart 2 h 37 °C, 2 mM NiCl2 selection, replicate 2): 15%
- Plasmid removal efficiency (%) ([5]; plasmid with pSC101 origin (~5 copies), 50 μL protein (0.05 μg/μL), electroporation, Tris-HCl pH 7.5 3 h, CutSmart 2 h 37 °C, 2 mM NiCl2 selection, replicate 3): 15.64%
